Experimental data from paper PMC6081480, “Monitoring the action of redox-directed cancer therapeutics using a human peroxiredoxin-2-based probe” (Nature Communications, 2018).
Blank lines part the entries; values can stand above or below the molecule they belong to.

Experiments:
[1] = target: human Prx2-based FRET probe (Clover-Prx2-mRuby2) (human); test: non-reducing SDS-PAGE with immunoblot; HeLa cells with or without the probe, treated with H2O2 (also auranofin or piperlongumine); free thiols blocked with 100 mM MMTS; 1% Triton X-100 lysate; SDS-PAGE without beta-mercaptoethanol; blot for Prx2 or GFP; disulfide-linked dimers
[2] = target: the molecule itself; test: as above

- stoichiometry N [1]: 2
Molecule: human Prx2-based FRET probe (Clover-Prx2-mRuby2)

B1: human peroxiredoxin-2 (endogenous) (natural protein, human (endogenous in HeLa), UniProt P32119 1-198, looked up)
chain: MASGNARIGKPAPDFKATAVVDGAFKEVKLSDYKGKYVVLFFYPLDFTFVCPTEIIAFSNRAEDFRKLGCEVLGVSVDSQFTHLAWINTPRKEGGLGPLNIPLLADVTRRLSEDYGVLKTDEGIAYRGLFIIDGKGVLRQITVNDLPVGRSVDEALRLVQAFQYTDEHGEVCPAGWKPGSDTIKPNVDDSKEYFSKHN
notes: peroxiredoxin-2 (Prx2), human, endogenous in HeLa cells; monomer band at 21 kDa; the dimer seen on non-reducing SDS-PAGE is linked by a disulfide between the catalytic and the resolving cysteine of two monomers; also called Prx2; endogenous Prx2; source: endogenous, HeLa lysate
- stoichiometry N [2]: 2
